{"source": "patent US9062100B2", "about": "“Anti-human TROP-2 antibody having anti-tumor activity in vivo” (LIVTECH, INC., dated 2015)", "binders": {"B1": {"name": "anti-hTROP-2 monoclonal antibody K5-107 (antibody, V domains shown)", "VH": "QVQLQQPGSELVRPGASVKLSCKASGYTFTSYWMHWVKQRHGQGLEWIGNIYPGGGYTNYDEKFKSKGTLTVDTSSSTAYMHLSSLTSEDSAVYYCTRSSVFDYWGQGTTLTVSS", "VL": "DILLTQSPAILSVSPGERVSFSCRASQNIGTSIHWFQQRTNGSPRLLIKYASESISGIPSRFSGSGSGTDFTLSINSVESEDIADYYCQQSNSWPFTFGSGTKLEIK"}}, "key": {"[1]": {"biological_target": "T1, Table 8 peptide No. 17 (human, not fully specified)", "T1 peptide": "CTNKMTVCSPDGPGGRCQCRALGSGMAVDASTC", "assay": "PEPSCAN CLIPS peptide ELISA"}, "[2]": {"biological_target": "T2, Table 8 peptide No. 6 (human, not fully specified)", "T2 peptide": "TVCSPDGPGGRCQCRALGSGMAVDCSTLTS", "assay": "PEPSCAN CLIPS peptide ELISA"}, "[3]": {"biological_target": "T3, Table 8 peptide No. 7 (human, not fully specified)", "T3 peptide": "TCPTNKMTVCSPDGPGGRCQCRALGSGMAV", "assay": "PEPSCAN CLIPS peptide ELISA"}, "[4]": {"biological_target": "T4, Table 8 peptide No. 4 (human, not fully specified)", "T4 peptide": "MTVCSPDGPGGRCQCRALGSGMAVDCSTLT", "assay": "PEPSCAN CLIPS peptide ELISA"}, "[5]": {"biological_target": "T5, Table 8 peptide No. 18 (human, not fully specified; cysteine pairing not given here)", "T5 peptide": "TVCSPDGPGGRCQCR", "assay": "PEPSCAN CLIPS peptide ELISA"}, "[6]": {"biological_target": "T6, Table 8 peptide No. 13 (human, not fully specified)", "T6 peptide": "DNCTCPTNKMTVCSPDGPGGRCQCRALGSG", "assay": "PEPSCAN CLIPS peptide ELISA"}, "[7]": {"biological_target": "T7, Table 8 peptide No. 16 (human, not fully specified)", "T7 peptide": "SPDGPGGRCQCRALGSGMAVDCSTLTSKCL", "assay": "PEPSCAN CLIPS peptide ELISA"}, "[8]": {"biological_target": "T8, Table 8 peptide No. 3 (human, not fully specified)", "T8 peptide": "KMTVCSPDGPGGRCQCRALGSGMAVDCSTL", "assay": "PEPSCAN CLIPS peptide ELISA"}, "[9]": {"biological_target": "T9, Table 8 peptide No. 8 (human, not fully specified)", "T9 peptide": "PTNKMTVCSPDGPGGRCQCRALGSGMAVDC", "assay": "PEPSCAN CLIPS peptide ELISA"}, "[10]": {"biological_target": "T10, Table 8 peptide No. 15 (human, not fully specified)", "T10 peptide": "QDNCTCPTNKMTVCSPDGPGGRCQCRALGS", "assay": "PEPSCAN CLIPS peptide ELISA"}, "[11]": {"biological_target": "T11, Table 8 peptide No. 19 (human, not fully specified)", "T11 peptide": "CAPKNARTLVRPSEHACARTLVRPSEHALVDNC", "assay": "PEPSCAN CLIPS peptide ELISA"}, "[12]": {"biological_target": "T12, Table 8 peptide No. 20 (human, not fully specified)", "T12 peptide": "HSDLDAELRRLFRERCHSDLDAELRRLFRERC", "assay": "PEPSCAN CLIPS peptide ELISA"}, "[13]": {"biological_target": "T13, Table 8 peptide No. 10 (human, not fully specified)", "T13 peptide": "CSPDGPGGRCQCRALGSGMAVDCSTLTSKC", "assay": "PEPSCAN CLIPS peptide ELISA"}, "[14]": {"biological_target": "T14, Table 8 peptide No. 14 (human, not fully specified)", "T14 peptide": "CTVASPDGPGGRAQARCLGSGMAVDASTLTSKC", "assay": "PEPSCAN CLIPS peptide ELISA"}, "[15]": {"biological_target": "T15, Table 8 peptide No. 2 (human, not fully specified)", "T15 peptide": "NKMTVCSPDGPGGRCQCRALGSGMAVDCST", "assay": "PEPSCAN CLIPS peptide ELISA"}, "[16]": {"biological_target": "T16, Table 8 peptide No. 5 (human, not fully specified)", "T16 peptide": "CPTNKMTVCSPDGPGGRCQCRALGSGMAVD", "assay": "PEPSCAN CLIPS peptide ELISA"}, "[17]": {"biological_target": "T17, Table 8 peptide No. 1 (human, not fully specified)", "T17 peptide": "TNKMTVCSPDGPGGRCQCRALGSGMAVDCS", "assay": "PEPSCAN CLIPS peptide ELISA"}, "[18]": {"biological_target": "T18, Table 8 peptide No. 9 (human, not fully specified)", "T18 peptide": "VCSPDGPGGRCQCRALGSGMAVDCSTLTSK", "assay": "PEPSCAN CLIPS peptide ELISA"}, "[19]": {"biological_target": "T19, human TROP-2 (hTROP-2) (human)", "T19 chain": "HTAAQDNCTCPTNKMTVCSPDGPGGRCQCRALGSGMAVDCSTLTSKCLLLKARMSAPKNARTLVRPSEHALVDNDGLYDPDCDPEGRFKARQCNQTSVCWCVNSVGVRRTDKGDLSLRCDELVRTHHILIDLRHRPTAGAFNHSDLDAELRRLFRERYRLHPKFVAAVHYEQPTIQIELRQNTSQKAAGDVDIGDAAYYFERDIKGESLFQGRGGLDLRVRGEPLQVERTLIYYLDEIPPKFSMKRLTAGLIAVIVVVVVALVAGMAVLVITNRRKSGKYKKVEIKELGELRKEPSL", "assay": "FACS on PK-59 cells"}, "[20]": {"biological_target": "T20, recombinant protein of the extracellular region of hTROP-2 (human)", "T20 sequence": "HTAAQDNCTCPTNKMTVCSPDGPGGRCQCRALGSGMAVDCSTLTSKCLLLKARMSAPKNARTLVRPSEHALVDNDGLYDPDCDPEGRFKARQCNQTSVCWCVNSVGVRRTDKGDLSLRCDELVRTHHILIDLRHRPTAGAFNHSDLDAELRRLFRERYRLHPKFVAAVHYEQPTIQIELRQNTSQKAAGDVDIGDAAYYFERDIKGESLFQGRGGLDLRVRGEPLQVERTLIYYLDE", "assay": "ELISA of free antibody after equilibration with antigen in solution"}, "[21]": {"biological_target": "T19, human TROP-2 (hTROP-2)", "assay": "FACS on BxPC-3 cells"}}, "note": "Where no end group is shown, it is not given here.", "data": [{"binder": "B1", "values": [{"measurement": "binding of K5-107", "setting": "[1]", "value": 380}, {"measurement": "binding of K5-107", "setting": "[2]", "value": 2720}, {"measurement": "binding of K5-107", "setting": "[3]", "value": 2720}, {"measurement": "binding of K5-107", "setting": "[4]", "value": 2730}, {"measurement": "binding of K5-107", "setting": "[5]", "value": 312}, {"measurement": "binding of K5-107", "setting": "[6]", "value": 1520}, {"measurement": "binding of K5-107", "setting": "[7]", "value": 561}, {"measurement": "binding of K5-107", "setting": "[8]", "value": 2750}, {"measurement": "binding of K5-107", "setting": "[9]", "value": 2690}, {"measurement": "binding of K5-107", "setting": "[10]", "value": 874}, {"measurement": "binding of K5-107", "setting": "[11]", "value": 284}, {"measurement": "binding of K5-107", "setting": "[12]", "value": 272}, {"measurement": "binding of K5-107", "setting": "[13]", "value": 2660}, {"measurement": "binding of K5-107", "setting": "[14]", "value": 1120}, {"measurement": "binding of K5-107", "setting": "[15]", "value": 2760}, {"measurement": "binding of K5-107", "setting": "[16]", "value": 2720}, {"measurement": "binding of K5-107", "setting": "[17]", "value": 2760}, {"measurement": "binding of K5-107", "setting": "[18]", "value": 2660}, {"measurement": "mean fluorescence intensity, times that with PE-labeled anti-mouse IgG only", "setting": "[19]", "value": 89, "unit": "times"}, {"measurement": "Kd", "setting": "[20]", "value": 4.7, "unit": "pM"}, {"measurement": "mean fluorescence intensity, times that with PE-labeled anti-mouse IgG only", "setting": "[21]", "value": 90, "unit": "times"}]}]}
